Measurements taken from the domain aggregation screens of Martell et al. (2025).

Experiment: soluble fraction after stress (log2 fold change); higher = more stays soluble; pooled small domains, quantitative proteomics
Settings: stress: 75 degC
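Also: 20 min heating vs room temperature control held 20 min.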

Sequence	soluble fraction (log2)
HMPPLVLRGVVMGADGARLAILAQGEAGAALGIGETWKEYTLRSVTDQSATLEHRSGTITLTR	-0.701
HMPPNPELGKKLLKLRKEFKMTQDDVANILGMSRTSFSKYENGIANPPLQVMRKLASIYNVGLEYLI	-1.84
HMPQEMIEILATPNGWLRVRQGPGTNYPEITKVNSGEEFPLLEEKDSWFKIRIEEGQEGWISSQYAQKEE	0.00978
HMPQGFEDLTEREREVLTLIAEGRTNQEIADALVISIKTVNRHRENIMAKLNLHSRVELVRYAIAQGLI	-2.61
HMPQNLQDQLFELILSRYPRRADAVEDLANILHLGKDPVYRRLRGDTFLSPLEISTLALHFRISLDALIV	-2.5
HMPQPEIEIAAVVPYSAGALLSRIHDDGELLAPVEYRGEGVFVHARVPADIEAAMRRGGMLSPAET	0.0386
HMPQQVFKREDLQKWGLTGQADSRKRREKLGQLLGIGYGNGKQLIHRLNMFQVDRATFEQAIKQINQEEDH	-0.539
HMPQTNIYPNPAFDKLFVSNLENETNFKIMDLFGRTIINSKTKGEISISELKSGIYIIEINNFRQKFVK	-2.64
HMPQVALAIDEMKRELASPDIVKTLLATTFKGLSEVNMRQAMLDGMIQGHTIADFFKKDVYAIPFGSGYSL	0.049
HMPRPFPELTTREHDILALIARGWSNGRIADHLSLSGKTVSNYVSNILGKLQVTARAEAAERAREAGMGQ	-0.379
HMPRRSYLDARKKLLGMLNSPDFNSGDQIPAERELSEVLGISRVTVRKIITELIDEGVLERRGNQGTWLVD	-1.01
HMPRSREVHVEPGMVLEDVTTGFVGAVIRTEKSAGIYVIELEDRRGRRRSFPLGGGFWLDGRPIIALPPLP	-1.81
HMPSLAVYPNPVKDILNIATDKPVHSIRIYNVYGSEVLRAADTNRIDVSHLPAGVYMVSADGKVTRIIK	-0.858
HMPSLGGLLALLKRNRKPDAMEALDRLISKEDRPETAEALENIREKVRNMQMREAEGLLLALMEP	-0.509
HMPSLILADEPTGNLDSRNSSEVIALLKNASKRYAQTIIMITHNRSIAQSADRVLQVSDGVLTDMG	0.345
HMPSLNDRPDDVLYLFSYFLQSFSHRQVSLPKILKKALIQHDWWGNIRELHSVALRYYIFGDTLNGAYDSL	-0.99
HMPSLSREREAAILEMIERRPSTAEDVASGLGLAVNEVIKLLDGTALRGSVETFQSGEEIYYTRKR	0.472
HMPSNVKIPDVTGKTVAQARSAIEAAGLKVGKEKDEYSDSAKKDSVIRTNPQAGTQRREGSTVDLIVS	0.175
HMPSPFYIMDEVEAALDDTNLGRLITLFEELRDSSQLIVITHQKKTMEIADALYGVTMRGDGITTVVSQRL	0.151
HMPSQEQSDKNAAMAFLPVIVKNALNGKGLKISDDWKAAVNTALAQYPLVNKFFNADSPEVTELVMGL	-0.0584
HMPSQLPLAFARRHGVLLRGFSNGLAQLTVRPEVSTLSLAETRRHLGVPLALEKVTTERFDQLLREAYEA	-0.9
HMPSYYKELQNYSPENPVVKKRKVHPDVVNAIKYLAEITDGNPMLIKAYAQMILAHVFTTMPLIDKSV	-0.00519
HMPTEAIVLQQIQIRQSPSGNSKSLQQILPGAKIKITSESSVKGWKQVSLDGGQKGWIPTAAIGL	-0.499
HMPTELVYTVPASAEGLRLDHFLVQHVPHMTRALATELTGAGGVRVNGRRAKKGDRLPSGAEVRLER	0.0576
HMPTFAEKLHEVRKARDFTQDQLAKEMNVSRQTISHWENGRAVPDIDTIKHLSQVLDYNFLV	0.0869
HMPTITIQRGIILSSTTKGFIDELSHSQIKNAIVERLGEHHVMIHESQLDAVIKYAQKKEAVINIYL	-0.874

Sequence	soluble fraction (log2)
HMPTMEQTYIGRTMIAEEDMGKNSKIKVSGIYWTAYNKGRVIKKGEEYKITGIEGNKLIVSSK	-0.393
HMPTNSDRLIGSDGVVSSKIDNLQGTGKVYISGLTWSARTIDGSEAEEGDIVTVEKIEGATLYVTKR	0.174
HMPTNVYSIIGKEGIVLESIDNLNSTGKVKVNGELWSAISDSNIEKGETIKVLSVNGVKLKVEKVN	-0.00656
HMPTPASGSSGYINATNVNFRTGPATSYKSISKLAKNTAVTILGTSGNWYKVTVGSLGKNGYVFATYVTVS	-2.23
HMPTPLTPREHEIANLIAQGLSNREIADELVISPATAARHVANILAKLGFSSRTQVASWATRHD	-0.277
HMPTSLPGIDIDEKNIVSSTGALSFKKVPKKLAIIGGGYIGLEMGSVWSRLGSSVTVIEYLNFITPG	0.365
HMPTTLEGIEKYLSSGLIKGIGPHLAGKLVEAFGTRVFEVVEHQPERLRTVGGIGRTRAESITSAWRDQ	-0.146
HMPTTNIRAFRLREADPESVKEALSMVMPKTSIYVDARTKSVLVVGLLDELARAAEIVALIDQP	-2.8
HMPVFSAEQVAKAEADVQKVANKVQEAGADVEKLTTIHNWLLAREKYMPPDLFSTANQIIATAFQKAG	0.525
HMPVGSIGERLKALRLKAGLTQEEVGQHVHISKQTLYKYENGIVTNIPADKIELLATIYSVTPAYIMGWA	-2.27
HMPVQPMDPSIEHISALTGKQFQAFPGQDHRAHMTAHLNFMSTNIVRNNPAVMGAIQKNILEHISLMAQEQ	0.322
HMPVSLHEQIQQARIRAEQNVEGISLLLQVNPKYYEQIEAGDVIPDQDLLKRISSLFGWNYHEMLHREKSS	-0.781
HMPVSTLLGDNLRRLRTAKGYTQEAVADAARISVAAYRNYETGRAIPKVNTLLAIARALGVSLNDLVTE	-0.605
HMPVTAQFDFSKVLAGRTLKDGEFSFVLKDKNGTVLQTKTNDASGKVAFDALIYKNNEVGEHKYTVEEVI	0.237
HMPVVKIPFILTEGPSSITKVIEIDADEILELKDVFQEDDKLWSINQIEMNDGRYVKHSDASLIVRASALR	0.233
HMPYHSEAWHKVMKSHWLTLSREEAYMHEGRTGASTINIVFQRELGREATQEEIESIYQEKSVLFNSYP	-1.52
HMPYLVNGFILEVQSDDNNPVGTLKRRYAVAKNKQGVILLEGEKSFSSNDQILINELKFYIQSNDLKA	-2.56
HMPYSKIALQISHLLKSHGVPLSNKQIYEKLINDFQLSINYSNLTNNILPRMNSDSSINVEKVTRGYWQY	-0.931
HMQADKYKSYTATDFLKDKDFLRWQLFNGEEDMLFWGRVIEEYPALRSRVEEGIVLYKDNIR	-0.711
HMQADTATITGNGVNMRSGPGTNYQIIDTIPKGTVAEVLSQQDGWVKIYSARISGWVSASYVEIKQT	-2.5
HMQAGNAVEQYPTIGRLEEVTLGRSQPGAPIGERLSTLETVVFKRNFNDDSLFDRTERLKKTILGG	-0.104
HMQAKQVAIPDVANYSVTDAIKKLQDAGFIVSDEQREEANETVSEGKVSRTSPAAGSIRKEGTEIILYKSL	0.361
HMQALDETTVSRIRQKAAARNLLLKVLAGQLGVARPTLSNVLARREAPSAALAARIRAFLDSP	-1.45
HMQALTLVGQDAKDAKAALDAVDIQPAKTETDRYIYVLTEQQAQELGRTVDALYGVEGSLTLILEV	0.253
HMQAQQYYMLLMNKATSALKIEALGANSNKAHQSFGTKTAGGSAVYWGILFNSNGKIYKIVG	-3.06
HMQASIPQSQKDALAKELQALPPHGRNRVLSTFRQQFNISSEKISEFITTPEHLSFIRSKIAEVESDS	0.267

Sequence	soluble fraction (log2)
HMQDENAVTYLLEIKNADANDIASVLKTLKSPDADVVVYKTLNMIIFTGQGSEINGLVKVARQLDRK	-2.04
HMQDGVNLENIEQKLSTLGVGKAQYFLQNVGGNKFNAYMALNTDGVEGYQKGSDTLIEIKNVE	0.215
HMQDKIWVVDETQLYPKLIEAMSEGKAVIHDGVAYWAEGSGKTGVIQHLPFKETTVQNVEEAIKLAQ	0.0953
HMQDKLLRKKEVLEMVSITNSTMYRMIGSGQFPRPIRLDNANINSGVRWKLSEINTFIEQRF	-0.513
HMQDLAKRWVEEFGDLLYKYTLPRVSDSGIAKDLVQETFLAAWRNIDNFKGEASEKNWLFTILKNKIIDH	-0.382
HMQDLTAQQQAILSFLKEHPKATRKEISENIPNITEDNIRYNLSQLQELGFVKSMGDSFIRIAI	0.534
HMQDNDLKNQIENVLRTYPDNVFTVEKIADVLRSHGSAAFKLIVQELASLERDKVAVVTEDGKFQLNPD	0.261
HMQDPTAVISRVLEERKHQPGALLPILHGIQDALGYVPREAVAQIAQALNLSRAEIHGVVSFYHHFR	-0.59
HMQDPVWVDWLGENDWFQKDPKRRGLANGYSEILRAEQPELVGRPFLDEVTRRVQADFPELFG	-0.944
HMQDTRSHARKMLAAIEALLEGRSGSDIQAYTIHNRSITKMTVPELVKWRSYYQQQVRSEDAAASLA	-0.61
HMQDTYLYPVQHNGKVRLQVELPAKGLPEDLVRLALAHPKVVEWLNGRIPTKTIAVPGRIINMVLPNQ	-0.638
HMQDVWEPFLAKGYVFADGMLTKLIHKRGDVYKTQEIGSDKIIYVIKDGDTFAHGKTVKAAMLDLAFKKS	-1.5
HMQDYISAEEAKSAALSASQVDSAGAAFSAAELGEKNGIPYYEVAFTADGLEYRYAIDAQTGTVIESSSSG	0.156
HMQEDKVRKLTEMGFAEDQAREALRKHDWDETMALNSL	0.262
HMQEDSNISFVKIHVDADSGMAHKKLSKLSLPTGFLIVVIIRGEENIIPNGETEVLPGDLLVAAAREFEN	-1.31
HMQEEELYPRLEEVINQHRGKGEDLIMVLHKAQNLFGYLPRRAQEMVAEGLNVSLNEVYGVITFYNFFST	0.194
HMQEERDISFIKIHLEPGHPWRGRALRELMPLKDLLIVMVVRGEDTIVPNGDTRLEEGDLLVLAAYPFEE	-0.834
HMQEHAHLWRLMEDNRSFKADYIAFENGIVLLQNLSSGKISQYPITDFSIEDQLLILKRHELTAHINAN	-3.3
HMQEIKPEPISDGRVWKEGMWATTPLGIEGQLLSDPDEKGMVQLGYGNMRININIQDLDPSR	-0.104
HMQEISQEEALATVLKDLSLTEADLKDLQITREEDKYKILFSKGQTAYDVLVSAKDGQLLQSKQETI	-0.313
HMQEKQIIDGREFYIHQVERGITLYSIAKQYNVKVADIQAENPFLEAGLQPGQTLKIPLDKVETVQEIK	-0.218
HMQEPIAVPDFINKSAVDVLVNPVFTQNFKLVSEDVYDDKVPEGYIVGQSVKSDTLVQPGTEIVIYV	0.224
HMQEPNYQPLMQNIKSQDLEEVTRLLSLNDVKFKIDHRTGLLLVESSRVYEAKMKLAATGITD	-1.07
HMQEPVHFTRRERQVLSLILSGQATAEIAKTLGIANATVTTYKKSLYSKSGTNSLSRLLIWAMVRR	-0.463
HMQEPVYRPVFPGMTDADRQSAMEALKEGGFSPRLNRQTGQLEVDASGYHEAKIYLASQGIPAE	0.0608
